Data set [1] concerns the molecule itself. Description: crystal structure; CrGAPA with 1 mM NADP+ or NAD+, hanging drop at 293 K, 1.2-1.6 M (NH4)2SO4, 0.1 M Tris-HCl pH 7.5-8.5; dimer in the asymmetric unit, tetramer by a crystallographic 2-fold axis.
Data set [2] deals with the molecule itself. The data set can be described thus: crystal structure; oxidized NADP+-CrGapA, hanging drop at 293 K, 1.2-1.6 M (NH4)2SO4, 0.1 M Bicine pH 9.5; dimer in the asymmetric unit, tetramer by a crystallographic 2-fold axis.

B1: photosynthetic glyceraldehyde-3-phosphate dehydrogenase from Chlamydomonas reinhardtii (CrGAPA) (enzyme, UniProt P50362 35-374, looked up)
chain: EKKIRVAINGFGRIGRNFLRCWHGRQNTLLDVVAINDSGGVKQASHLLKYDSTLGTFAADVKIVDDSHISVDGKQIKIVSSRDPLQLPWKEMNIDLVIEGTGVFIDKVGAGKHIQAGASKVLITAPAKDKDIPTFVVGVNEGDYKHEYPIISNASCTTNCLAPFVKVLEQKFGIVKGTMTTTHSYTGDQRLLDASHRDLRRARAAALNIVPTTTGAAKAVSLVLPSLKGKLNGIALRVPTPTVSVVDLVVQVEKKTFAEEVNAAFREAANGPMKGVLHVEDAPLVSIDFKCTDQSTSIDASLTMVMGDDMVKVVAWYDNEWGYSQRVVDLAEVTAKKWVA
notes: Glyceraldehyde-3-phosphate dehydrogenase A, chloroplastic (GAPA), Chlamydomonas reinhardtii; mature protein; Homotetramer of A-type subunits; also called NADP-CrGAPA; NAD-CrGAPA
Usually stoichiometry N stands for the number of molecules, sites or subunits per partner or assembly. With B1, the “stoichiometry N” value in data set [1] came to 4.

B2: oxidized NADP+-CrGAPA (catalytic Cys149 oxidized to sulphinate/sulphonate) (enzyme, Chlamydomonas reinhardtii, UniProt P50362 35-374, looked up)
chain: B1 chain
modifications: Cys149 oxidized to sulphinate/sulphonate (-SO2-/-SO3-)
notes: Glyceraldehyde-3-phosphate dehydrogenase A, chloroplastic (GAPA), Chlamydomonas reinhardtii; mature protein; Same construct as m1; Cys149 found oxidized in crystals grown in 0.1 M Bicine pH 9.5 with NADP+
B2: the “stoichiometry N” value in data set [2] was found to be 4.

(Values after paper PMC9287727, “Structural snapshots of nitrosoglutathione binding and reactivity underlying S-nitrosylation of photosynthetic GAPDH” (Redox Biology, 2022).)
